{"source": "patent US20230055408A1", "about": "(JIANGSU HENGRUI MEDICINE, published 2023)", "binders": {"B1": {"name": "Hu67-9 (antibody, human IgG1, kappa, V domains shown)", "VH": "EVQLVQSGAEVKKPGESLKISCKGSGYSFTDYHMNWVRQMPGKGLEWMGDINPDIGGTSYNQNFKGQVTISADKSISTAYLQWSSLKASDTAMYYCARWDFDSFANWGQGTLVTVSS", "VL": "DIQMTQSPSSLSASVGDRVTITCRASESVSIIGTNLIHWYQQKPGKAPKLLIYHASNLETGVPSRFSGSGSGTDFTLTISSLQPEDFATYYCLQSRKIPYTFGGGTKVEIKR"}, "B2": {"name": "Hu67-10 (antibody, human IgG1, kappa, V domains shown)", "VH": "B1 VH", "VL": "B1 VL with Q3V, A47P"}, "B3": {"name": "Hu67-4 (antibody, human IgG1, kappa, V domains shown)", "VH": "EVQLVQSGAEVKKPGASVKVSCKASGYTFTDYHMNWVRQAPGQRLEWMGDINPDIGGTSYNQNFKGRVTITRDTSASTAYMELSSLRSEDTAVYYCARWDFDSFANWGQGTLVTVSS", "VL": "B1 VL"}, "B4": {"name": "Hu47-14-2-A (DAR 6.6) (antibody, human IgG1, kappa, V domains shown)", "VH": "EVQLVQSGSELKKPGASVKVSCKASGYTFTTYGMSWVKQAPGQGLKWMGWINTYSGVPTYASDFKGRFVFSLDTSVSTAYLQISSLKAEDTAVYYCARRGNYGRWDFDVWGQGTTVTVSS", "VL": "EIVLTQSPDFQSVTPKEKVTITCSVSSTISSSNLHWYQQKPDQSPKPLIYGTSNLASGVPSRFSGSGSGTDYTLTINSLEAEDAATYYCQQWSIYPLTFGQGTKLEIKR", "modifications": "see heavy chain; linker-toxin 2-A coupled to cysteine thiols of the TCEP-reduced antibody; mean DAR 6.6 per antibody"}, "B5": {"name": "Hu67-14-2-A (DAR 6.41) (antibody, human IgG1, kappa, V domains shown)", "VH": "B1 VH with R38K, Q67K, A72V", "VL": "B1 VL", "modifications": "see heavy chain; linker-toxin 2-A coupled to cysteine thiols of the TCEP-reduced antibody; mean DAR 6.41 per antibody"}, "B6": {"name": "Hu67-14-2-A (DAR 4.28) (antibody, human IgG1, kappa, V domains shown)", "VH": "B1 VH with R38K, Q67K, A72V", "VL": "B1 VL", "modifications": "see heavy chain; linker-toxin 2-A coupled to cysteine thiols of the TCEP-reduced antibody; mean DAR 4.28 per antibody"}, "B7": {"name": "Hu103-32-2-A (DAR 6.94) (antibody, human IgG1, lambda, V domains shown)", "VH": "EVQLVQSGSELKKPGASVKVSCKASGYTFTTYGVIWVRQAPGQGLEWMGWINTYSGVPTYASDFKGRFVFSLDTSVSTAYLQISSLKAEDTAVYYCARKKTLTTVTPWFAYWGQGTLVTVSS", "VL": "ELVLTQSPSASASLGASVKLTCTLSSQHSTYTIEWYQQQPEKGPRYVMELKKDGSHSTGEGIPDRFSGSSSGAERYLTISSLQSEDEADYYCGVGNTIKEQFVYVFGGGTKLTVLG", "modifications": "see heavy chain; linker-toxin 2-A coupled to cysteine thiols of the TCEP-reduced antibody; mean DAR 6.94 per antibody"}, "B8": {"name": "Hu103-32-2-A (DAR 4.8) (antibody, human IgG1, lambda, V domains shown)", "VH": "B7 VH", "VL": "B7 VL", "modifications": "see heavy chain; linker-toxin 2-A coupled to cysteine thiols of the TCEP-reduced antibody; mean DAR 4.8 per antibody"}, "B9": {"name": "Hu63-13-2-A (DAR 3.97) (antibody, human IgG1, kappa, V domains shown)", "VH": "EVQLVQSGAEVKKPGASVKVSCKASGYTFTDFYMNWVRQAPGQGLEWMGDIFPKSGNTDYNRKFKDRVTMTRDTSTSTVYMELSSLRSEDTAVYYCARSGYGNYVFDYWGQGTLVTVSS", "VL": "DIQMTQSPSSLSASVGDRVTITCRTSQDINIYLNWYQQKPGKAPKLLIYYRSGLLSGVPSRFSGSGSGTDFTLTISSLQPEDFATYYCQQGNTLPPTFGGGTKVEIKR", "modifications": "see heavy chain; linker-toxin 2-A coupled to cysteine thiols of the TCEP-reduced antibody; mean DAR 3.97 per antibody"}}, "note": "Changes are numbered by the printed parent chain.", "data": [{"target": "T1, human CEA protein on the cell surface (human, UniProt P06731 35-685)", "T1 construct": "whole, on cells; also called CEACAM-5; CD66e", "T1 sequence (looked up)": "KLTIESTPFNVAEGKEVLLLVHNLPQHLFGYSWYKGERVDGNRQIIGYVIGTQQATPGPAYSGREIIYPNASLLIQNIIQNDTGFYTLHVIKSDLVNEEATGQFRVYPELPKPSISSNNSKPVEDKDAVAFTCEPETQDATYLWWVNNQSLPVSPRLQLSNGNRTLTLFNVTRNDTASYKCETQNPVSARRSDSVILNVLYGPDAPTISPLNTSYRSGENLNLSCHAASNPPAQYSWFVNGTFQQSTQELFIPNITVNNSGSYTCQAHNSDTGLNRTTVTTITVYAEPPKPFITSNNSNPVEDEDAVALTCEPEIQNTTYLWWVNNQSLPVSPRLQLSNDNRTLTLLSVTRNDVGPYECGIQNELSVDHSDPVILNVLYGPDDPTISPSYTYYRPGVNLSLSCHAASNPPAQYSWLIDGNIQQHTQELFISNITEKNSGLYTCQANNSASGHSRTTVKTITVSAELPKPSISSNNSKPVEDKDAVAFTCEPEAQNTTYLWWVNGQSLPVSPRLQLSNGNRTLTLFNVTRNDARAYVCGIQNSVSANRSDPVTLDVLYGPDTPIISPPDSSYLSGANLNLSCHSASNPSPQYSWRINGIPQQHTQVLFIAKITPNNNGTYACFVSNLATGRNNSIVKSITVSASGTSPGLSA", "assay": "FACS, MKN45 cells", "protocol": "(§1) In order to detect the binding of the antibody to the CEA protein on the cell surface, the binding activity of the antibody was determined by FACS using cells expressing CEA on the cell surface. Cells were harvested and centrifuged at 400 g at 4° C. for 5 min. Pre-cooled PBS containing FBS at final concentration 10% was added, and the mixture was centrifuged at 400 g at 4° C. for 5 min; the procedures were repeated twice. The cells were seeded into a 96-well plate at 10⁵ cells/well, and 100 μL of gradient diluted antibody solution was added to each well. The plate was incubated at 4° C. for 60 min and centrifuged, and the supernatant was removed. 250 μL of pre-cooled PBS containing FBS at final concentration 10% was added to each well to resuspend the cells, and the suspension was centrifuged at 400 g at 4° C. for 5 min, followed by the removal of the supernatant; the procedures were repeated twice. 50 μL of 1:200 diluted secondary antibody Alexa Fluor@488 goat anti-human IgG (H+L) (Lifetechologies, Cat #A11013) was added. […] 250 μL of pre-cooled PBS containing FBS at final concentration 10% was added to each cell to resuspend the cells, and the suspension was centrifuged at 400 g at 4° C. for 5 min; the procedures were repeated twice. 100 μL of pre-cooled PBS was added to each well to resuspend the cells. The plate was analyzed by a flow cytometer (BD, FACSverse) for fluorescence signal values.", "units": {"EC50": "nM"}, "values": [{"binder": "B1", "EC50": 3.75}, {"binder": "B2", "EC50": 3.19}, {"binder": "B3", "EC50": 3.25}]}, {"target": "T2, monkey CEA expressed on CHO cell surface (cynomolgus monkey)", "T2 construct": "also called cynoCEA-CHO; monkey CEA proteins on the cell surface", "T2 chain": "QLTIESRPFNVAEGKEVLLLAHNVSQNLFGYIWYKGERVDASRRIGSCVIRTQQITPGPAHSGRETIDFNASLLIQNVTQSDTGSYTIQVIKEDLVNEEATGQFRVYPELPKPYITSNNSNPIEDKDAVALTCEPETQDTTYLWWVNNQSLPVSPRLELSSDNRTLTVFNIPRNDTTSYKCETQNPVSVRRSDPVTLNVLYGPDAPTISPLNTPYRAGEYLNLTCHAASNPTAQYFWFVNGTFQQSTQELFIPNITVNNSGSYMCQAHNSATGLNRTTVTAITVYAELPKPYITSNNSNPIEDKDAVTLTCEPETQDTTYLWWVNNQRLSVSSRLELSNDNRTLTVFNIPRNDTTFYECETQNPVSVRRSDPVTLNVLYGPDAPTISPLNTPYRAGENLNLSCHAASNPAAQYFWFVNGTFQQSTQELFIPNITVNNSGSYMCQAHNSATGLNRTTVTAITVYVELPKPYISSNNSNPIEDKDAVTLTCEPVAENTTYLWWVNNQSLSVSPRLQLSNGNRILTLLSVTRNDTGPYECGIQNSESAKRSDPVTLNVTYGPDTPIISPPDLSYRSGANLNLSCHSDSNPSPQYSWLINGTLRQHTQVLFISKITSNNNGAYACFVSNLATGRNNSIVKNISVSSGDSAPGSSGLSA", "assay": "FACS, cynoCEA-CHO cells", "protocol": "as §1", "units": {"EC50": "nM"}, "values": [{"binder": "B1", "EC50": 3.72}, {"binder": "B2", "EC50": 5.37}, {"binder": "B3", "EC50": 3.06}]}, {"target": "T1, human CEA protein on the cell surface", "assay": "cell-based or functional assay", "units": {"IC50 of inhibition of cell proliferation, LS174T (with moderate CEA expression)": "nM", "IC50 of inhibition of cell proliferation, MKN45 (with high CEA expression)": "nM"}, "values": [{"binder": "B4", "IC50 of inhibition of cell proliferation, LS174T (with moderate CEA expression)": 10.3, "IC50 of inhibition of cell proliferation, MKN45 (with high CEA expression)": 6.58}, {"binder": "B5", "IC50 of inhibition of cell proliferation, LS174T (with moderate CEA expression)": 9.24, "IC50 of inhibition of cell proliferation, MKN45 (with high CEA expression)": 3.33}, {"binder": "B6", "IC50 of inhibition of cell proliferation, LS174T (with moderate CEA expression)": 15.6, "IC50 of inhibition of cell proliferation, MKN45 (with high CEA expression)": 9.39}, {"binder": "B7", "IC50 of inhibition of cell proliferation, LS174T (with moderate CEA expression)": 2.37, "IC50 of inhibition of cell proliferation, MKN45 (with high CEA expression)": 3}, {"binder": "B8", "IC50 of inhibition of cell proliferation, LS174T (with moderate CEA expression)": 3.08, "IC50 of inhibition of cell proliferation, MKN45 (with high CEA expression)": 2.86}, {"binder": "B9", "IC50 of inhibition of cell proliferation, LS174T (with moderate CEA expression)": 19.8, "IC50 of inhibition of cell proliferation, MKN45 (with high CEA expression)": 34}]}]}
